Numbering of substitutions follows the chain as printed. Names and notes keep the numbering of the source.
T1: PGS-1, YRRAAVPPSPSLSRHSSPSQS(p)EDEEE
T1 chain: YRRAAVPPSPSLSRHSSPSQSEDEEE

T2: p9CREB, ILSRRPS(p)YR
T2 chain: ILSRRPSYR

T3: pIRS-1, RREGGMSRPAS(p)VDG
T3 chain: RREGGMSRPASVDG

T4: L803-mts (not fully specified)
T4 chain: GKEAPPAPPQSP

B1: GSK-3β F93A mutant (protein)
chain: MSGRPRTTSFAESCKPVQQPSAFGSMKVSRDKDGSKVTTVVATPGQGPDRPQEVSYTDTKVIGNGSFGVVYQAKLCDSGELVAIKKVLQDKRAKNRELQIMRKLDHCNIVRLRYFFYSSGEKKDEVYLNLVLDYVPETVYRVARHYSRAKQTLPVIYVKLYMYQLFRSLAYIHSFGICHRDIKPQNLLLDPDTAVLKLCDFGSAKQLVRGEPNVSYICSRYYRAPELIFGATDYTSSIDVWSAGCVLAELLLGQPIFPGDSGVDQLVEIIKVLGTPTREQIREMNPNYTEFKFPQIKAHPWTKDSSGTGHFTSGVRVFRPRTPPEAIALCSRLLEYTPTARLTPLEACAHSFFDELRDPNVKLPNGRDTPALFNFTTQELSSNPPLATILIPPHARIQAAASTPTNATAASDANTGDRGQTNNAASASASNST
B2: GSK-3β D90A mutant (protein)
chain: B1 chain with D90A, A93F
B3: GSK-3β K94A mutant (protein)
chain: B1 chain with A93F, K94A
B4: wild-type (WT) GSK-3β (protein)
chain: B1 chain with A93F
B5: GSK-3β R92A mutant (protein)
chain: B1 chain with R92A, A93F
B6: GSK-3β K91A mutant (protein)
chain: B1 chain with K91A, A93F

Experiments:
[1] = biological target: T1, PGS-1, YRRAAVPPSPSLSRHSSPSQS(p)EDEEE
p9CREB, ILSRRPS(p)YR = biological target: T2, p9CREB, ILSRRPS(p)YR
[2] = biological target: T3, pIRS-1, RREGGMSRPAS(p)VDG
L803-mts = biological target: T4, L803-mts

Protein | Substrate phosphorylation (% of WTGSK-3β) (% of WTGSK-3β) [1] | Substrate phosphorylation (% of WTGSK-3β) (% of WTGSK-3β) (p9CREB, ILSRRPS(p)YR) | Substrate phosphorylation (% of WTGSK-3β) (% of WTGSK-3β) [2] | in vitro kinase assays using pIRS-1, p9CREB, and pGS-1 substrate in the presence or absence of L803-mts (100 µM) (L803-mts)
B1 | 13 | 46 | 42 | 
B2 | 83 | 92 | 88 | 
B3 | 19 | 71 | 52 | 
B4 |  |  |  | L803-mts (SEQ ID NO:5) competes with various substrates
B5 | 41 | 49 | 60 | 
B6 | 119 | 161 | 140 | 
